Measurements as given in patent publication US20160257760A1 (OXFORD BIOTHERAPEUTICS, published 2016).

Tests used:
YDDREFIY = target: T1, YDDREFIY; assay: peptide microarray, 1 µg/mL LY75_A1, anti-human IgG Alexa 647
T1 peptide: YDDREFIY
Experimental: (§1) The chip comprised three panels such that the experiment was performed in triplicate. […] The binding assay was performed under the following conditions:—The microarray comprising the contiguous peptides in triplicate was washed with 1 mL of binding buffer at 4° C. for 20 min. […] The array was again washed with 0.5 mL of washing buffer at 4° C. for 30 min.

PWRRGWHF = target: T2, PWRRGWHF; assay: as above
T2 peptide: PWRRGWHF
Experimental: as §1

DREFIYLR = target: T3, DREFIYLR; assay: as above
T3 peptide: DREFIYLR
Experimental: as §1

EFIYLRPF = target: T4, EFIYLRPF; assay: as above
T4 peptide: EFIYLRPF
Experimental: as §1

RRGWHFYD = target: T5, RRGWHFYD; assay: as above
T5 peptide: RRGWHFYD
Experimental: as §1

[1] = target: T6, LY75 tryptic peptide GWHFYDDR (765-772); assay: as above
T6 construct: Tryptic peptide of recombinant LY75, eluted from LY75_A1 beads and identified by LC-MS/MS
T6 peptide: GWHFYDDR
Experimental: as §1

KKLSRLTY = target: T7, KKLSRLTY; assay: as above
T7 peptide: KKLSRLTY
Experimental: as §1

LSRLTYSS = target: T8, LSRLTYSS; assay: as above
T8 peptide: LSRLTYSS
Experimental: as §1

KLSRLTYS = target: T9, KLSRLTYS; assay: as above
T9 peptide: KLSRLTYS
Experimental: as §1

YKIIPKTL = target: T10, YKIIPKTL; assay: as above
T10 peptide: YKIIPKTL
Experimental: as §1

NLYKIIPK = target: T11, NLYKIIPK; assay: as above
T11 peptide: NLYKIIPK
Experimental: as §1

KTLTWHSA = target: T12, KTLTWHSA; assay: as above
T12 peptide: KTLTWHSA
Experimental: as §1

IPKTLTWH = target: T13, IPKTLTWH; assay: as above
T13 peptide: IPKTLTWH
Experimental: as §1

PKTLTWHS = target: T14, PKTLTWHS; assay: as above
T14 peptide: PKTLTWHS
Experimental: as §1

NNLYKIIP = target: T15, NNLYKIIP; assay: as above
T15 peptide: NNLYKIIP
Experimental: as §1

LNNLYKII = target: T16, LNNLYKII; assay: as above
T16 peptide: LNNLYKII
Experimental: as §1

TLTWHSAK = target: T17, TLTWHSAK; assay: as above
T17 peptide: TLTWHSAK
Experimental: as §1

YLNNLYKI = target: T18, YLNNLYKI; assay: as above
T18 peptide: YLNNLYKI
Experimental: as §1

KIIPKTLT = target: T19, KIIPKTLT; assay: as above
T19 peptide: KIIPKTLT
Experimental: as §1

VKYLNNLY = target: T20, VKYLNNLY; assay: as above
T20 peptide: VKYLNNLY
Experimental: as §1

LYKIIPKT = target: T21, LYKIIPKT; assay: as above
T21 peptide: LYKIIPKT
Experimental: as §1

IIPKTLTW = target: T22, IIPKTLTW; assay: as above
T22 peptide: IIPKTLTW
Experimental: as §1

FTSCSERH = target: T23, FTSCSERH; assay: as above
T23 peptide: FTSCSERH
Experimental: as §1

FVSLCQKY = target: T24, FVSLCQKY; assay: as above
T24 peptide: FVSLCQKY
Experimental: as §1

SLCQKYSE = target: T25, SLCQKYSE; assay: as above
T25 peptide: SLCQKYSE
Experimental: as §1

ERHFVSLC = target: T26, ERHFVSLC; assay: as above
T26 peptide: ERHFVSLC
Experimental: as §1

LCQKYSEV = target: T27, LCQKYSEV; assay: as above
T27 peptide: LCQKYSEV
Experimental: as §1

TSCSERHF = target: T28, TSCSERHF; assay: as above
T28 peptide: TSCSERHF
Experimental: as §1

RHFVSLCQ = target: T29, RHFVSLCQ; assay: as above
T29 peptide: RHFVSLCQ
Experimental: as §1

CQKYSEVK = target: T30, CQKYSEVK; assay: as above
T30 peptide: CQKYSEVK
Experimental: as §1

SCSERHFV = target: T31, SCSERHFV; assay: as above
T31 peptide: SCSERHFV
Experimental: as §1

VSLCQKYS = target: T32, VSLCQKYS; assay: as above
T32 peptide: VSLCQKYS
Experimental: as §1

[2] = target: T33, LY75 (DEC-205) on COLO205 cells (human, UniProt O60449 28-1722); assay: competitive FACS on COLO205 cells
T33 construct: Endogenous LY75 on COLO205 human colorectal adenocarcinoma cells; also called Lymphocyte antigen 75
T33 sequence (O60449 28-1722 limits assumed): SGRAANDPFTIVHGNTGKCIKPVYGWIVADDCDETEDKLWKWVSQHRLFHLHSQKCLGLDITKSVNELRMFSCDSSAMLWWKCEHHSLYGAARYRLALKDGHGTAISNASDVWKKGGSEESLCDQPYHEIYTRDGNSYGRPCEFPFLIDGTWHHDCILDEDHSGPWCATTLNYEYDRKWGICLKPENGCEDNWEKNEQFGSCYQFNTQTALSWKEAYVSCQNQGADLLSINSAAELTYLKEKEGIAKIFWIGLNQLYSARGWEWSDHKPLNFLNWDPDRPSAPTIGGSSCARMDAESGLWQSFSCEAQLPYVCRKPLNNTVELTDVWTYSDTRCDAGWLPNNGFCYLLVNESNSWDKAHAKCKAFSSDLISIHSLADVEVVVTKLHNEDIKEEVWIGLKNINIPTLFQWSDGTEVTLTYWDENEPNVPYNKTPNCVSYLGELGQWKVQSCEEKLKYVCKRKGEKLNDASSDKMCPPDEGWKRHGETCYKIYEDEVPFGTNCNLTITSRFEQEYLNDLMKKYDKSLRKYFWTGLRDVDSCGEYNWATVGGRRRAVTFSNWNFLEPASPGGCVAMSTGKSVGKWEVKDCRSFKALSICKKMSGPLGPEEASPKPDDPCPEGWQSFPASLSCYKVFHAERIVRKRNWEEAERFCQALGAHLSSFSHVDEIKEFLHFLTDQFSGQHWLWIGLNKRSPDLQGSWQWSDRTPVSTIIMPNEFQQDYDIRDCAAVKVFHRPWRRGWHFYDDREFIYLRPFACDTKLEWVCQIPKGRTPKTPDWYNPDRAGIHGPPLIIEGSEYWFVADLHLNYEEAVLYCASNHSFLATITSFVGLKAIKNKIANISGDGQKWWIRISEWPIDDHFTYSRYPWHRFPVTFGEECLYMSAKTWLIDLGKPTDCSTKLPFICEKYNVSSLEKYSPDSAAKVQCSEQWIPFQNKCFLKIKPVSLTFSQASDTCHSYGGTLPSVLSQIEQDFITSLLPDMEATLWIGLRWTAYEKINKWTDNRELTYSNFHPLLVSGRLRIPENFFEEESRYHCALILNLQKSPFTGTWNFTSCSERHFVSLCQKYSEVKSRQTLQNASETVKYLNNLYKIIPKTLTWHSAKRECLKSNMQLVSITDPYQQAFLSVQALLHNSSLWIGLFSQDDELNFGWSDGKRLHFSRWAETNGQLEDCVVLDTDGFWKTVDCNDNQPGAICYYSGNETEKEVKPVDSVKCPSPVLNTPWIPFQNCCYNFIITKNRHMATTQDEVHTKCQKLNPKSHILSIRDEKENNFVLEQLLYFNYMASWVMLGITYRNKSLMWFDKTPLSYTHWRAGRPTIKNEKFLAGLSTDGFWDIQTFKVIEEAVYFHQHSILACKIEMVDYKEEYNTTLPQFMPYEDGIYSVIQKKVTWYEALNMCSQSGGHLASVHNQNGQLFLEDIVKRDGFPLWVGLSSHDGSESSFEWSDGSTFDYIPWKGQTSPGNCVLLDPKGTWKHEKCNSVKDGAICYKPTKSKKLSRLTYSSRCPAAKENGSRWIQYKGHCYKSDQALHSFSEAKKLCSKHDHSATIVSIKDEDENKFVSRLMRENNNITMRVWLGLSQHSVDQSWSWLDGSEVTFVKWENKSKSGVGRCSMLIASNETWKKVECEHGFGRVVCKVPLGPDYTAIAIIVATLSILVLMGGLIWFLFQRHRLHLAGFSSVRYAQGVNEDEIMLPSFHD
Experimental: Cells were washed and resuspended in FACS buffer (PBS+2% FBS), neutralized with growth media, and counted. Cells were plated at 50,000 cells per well in a V Bottom 96-well plate. Cells were washed once with FACS buffer (PBS (Fisher, catalog # SH30028-03)+2% FBS). […] Test wells that required single or multiple staining steps were left in FACS buffer as appropriate to ensure the final staining was completed simultaneously for all conditions tested. Two wells were left unstained in FACS buffer as controls.
After the incubation with blocking antibody, cells were washed twice in FACS buffer. […] The cells were washed as above and resuspended in FACS buffer plus 1 ug/ml mouse anti-maytansine antibody and incubated in ice for 45 minutes. The cells were washed as above and resuspended in FACS buffer containing 2 ug/ml goat anti-mouse kappa RPE. The cells were incubated on ice for 45 minutes then washed as above. The cells were resuspended in FACS buffer at 200 ul per well. Mean fluorescence intensity of each sample was determined using a Guava EasyCyte Plus HT Flow Cytometer (96 well plate formats) and the raw data was analyzed using the Guava Cytosoft.

B1: LY75_A1 monoclonal antibody (antibody, V domains shown)
VH: EVQLVESGGGLVKPGGSLRLSCAASGFTYSNAWMSWVRQAPGKGLEWVGRIKSKTDGGTTDYAAPVQGRFTISRDDSKNTLYLQMNSLKTEDTAVYYCTIFGVVSFDYWGQGTLVTVSS
VL: DVQMTQSPSSLSASVGDRVTITCRASQSISDYLSWYQQRPGKAPNLLIYAASNLKTGVPSRFSGSGSGTDFTLTISTLQPEDFATYYCQQSYRSPWTFGQGTKVEIKR
notes: also called LY75A1 antibody; LY75_A1 antibody
- binding result (YDDREFIY): binds
- binding result (PWRRGWHF): binds
- binding result (DREFIYLR): binds
- binding result (EFIYLRPF): binds
- binding result (RRGWHFYD): binds
- binding result [1]: binds
- binding result (KKLSRLTY): binds
- binding result (LSRLTYSS): binds
- binding result (KLSRLTYS): binds
- binding result (YKIIPKTL): no binding (tested: 1 µg/mL)
- binding result (NLYKIIPK): no binding (tested: 1 µg/mL)
- binding result (KTLTWHSA): no binding (tested: 1 µg/mL)
- binding result (IPKTLTWH): no binding (tested: 1 µg/mL)
- binding result (PKTLTWHS): no binding (tested: 1 µg/mL)
- binding result (NNLYKIIP): no binding (tested: 1 µg/mL)
- binding result (LNNLYKII): binds
- binding result (TLTWHSAK): no binding (tested: 1 µg/mL)
- binding result (YLNNLYKI): binds
- binding result (KIIPKTLT): no binding (tested: 1 µg/mL)
- binding result (VKYLNNLY): binds
- binding result (LYKIIPKT): no binding (tested: 1 µg/mL)
- binding result (IIPKTLTW): no binding (tested: 1 µg/mL)
- binding result (FTSCSERH): binds
- binding result (FVSLCQKY): binds
- binding result (SLCQKYSE): no binding (tested: 1 µg/mL)
- binding result (ERHFVSLC): no binding (tested: 1 µg/mL)
- binding result (LCQKYSEV): no binding (tested: 1 µg/mL)
- binding result (TSCSERHF): binds
- binding result (RHFVSLCQ): no binding (tested: 1 µg/mL)
- binding result (CQKYSEVK): no binding (tested: 1 µg/mL)
- binding result (SCSERHFV): binds
- binding result (VSLCQKYS): binds
- binding result [2]: binds
